Reference: the supplement of paper PMC9170038

Tested on: K4 kissing-loop RNA reporter
Assay: apparent KD of K4 kissing-loop reporter; higher = weaker reporter binding
Details: Eterna round: R107
Experimental: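 RNA-MaP round R107: designed RNA switches with theophylline, tryptophan, arginine or FMN aptamers are transcribed on-chip within common flanks. They are titrated with a labelled K4 kissing-loop RNA reporter in RNA-MaP buffer (100 mM Tris pH 7.5, 80 mM KCl, 4 mM MgCl2), without ligand or with the indicated ligand. Median apparent KD per design.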

[1] = input ligand: theophylline 20 uM
[2] = input ligand: tryptophan 2.4 mM
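Further: bound reporter read as fluorescence of individual clusters on recovered sequencing chips by microscopy, with normalized cluster intensities fitted with a binding model.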

| Sequence | apparent KD of K4 kissing-loop reporter (input ligand: FMN 200 uM) [nM] | apparent KD of K4 kissing-loop reporter (input ligand: arginine 13.2 mM) [nM] | apparent KD of K4 kissing-loop reporter (input ligand: none) [nM] | apparent KD of K4 kissing-loop reporter [1] [nM] | apparent KD of K4 kissing-loop reporter [2] [nM] |
| --- | --- | --- | --- | --- | --- |
| AGCUCAGAGUGACUUGAUAAGAGUCACAAACGAGGACCGGUACGGCCGCCACUCGAAAUAACGAGAGUGAUGUUCUCGCUGAGCA [FiskerMod 5 - Jieux - Same State Tryptophan A] | 696 | 564 | 980 | 843 | 328 |
| AGGAGCGUGGGAUGCAAAUCGCACGCUCCUCGAGGACCGGUACGGCCGCCACUCGCUCGCGCCGAGUGAUGUUCGGCCGGCGAAC [#2 Same State - Tryptophan A Attempt #14 (HarryS)] | 221 | 232 | 247 | 266 | 407 |
| AGGAUCCGUCGACAAAAGUCGACAUAAUCCAAGGAUAUGACGAAAGUCAGAAGGUGGGCAUAAGUCCAGUGAUGUUGGAGGAUCC [FmnA 18 #SwitchBubble #K4Late] | 575 | 360 | 587 | 523 | 445 |
| AGGGUAAGGCGUUAACAUGACACCUGGGAAGGAGCGCAGUACACUGCAGGUAGGUCGCCCAGUGAUGUUGGGCGUAUGUAUUAGU [Legexeso] | 140 | 143 | 153 | 200 | 119 |
| AGGGUAAGGCGUUAACAUGACACCUGGGAAGGAGCGCGGUACACCGCAGGUAGGUCGCCCAGUGAUGUUGGGUGAUUGUAUGAGU [KL-XArg-A24] | 149 | 123 | 136 | 150 | 131 |
| AGGGUAAGGCGUUAACAUGACACCUGGGAAGGAGCGCGGUACACCGCAGGUAGGUCGCCCAGUGAUGUUGGGUGUAUGUAUGAGU [KL-XArg-A21] | 170 | 120 | 139 | 154 | 132 |
| AGGUCACCAGGAAGGAGCGCCCUGACAGGUUGCUGCCGUGGGCAGUGAUGUUGCUCAGUCCGGCAGGUAGGUCGCCUGGUGACCU | 139 | 158 | 154 | 125 | 157 |
| AGGUUUUGAUUAGGAUAUGCACUGAGGACGAGAAUAUAGUGAUGUUAUAUAAUAGGAAUUAGUAGAGUAGAAGGGAUUGAGGUUU [SSFMNB.V] | 244 | 153 | 183 | 194 | 161 |
| AGGUUUUGAUUAGGAUAUGCACUGAGGAGGAGAAUAUAGUGAUGUUAUAUAAUAGGAAUUAGUAGAGUAGAAGGGAUUGAGGUUU [SSFMNB.U] | 206 | 223 | 172 | 248 | 142 |
| AGGUUUUGAUUAGGAUAUGCAUUGACGAUGAGAAUAUAGUGAUGUUAUAUACUACGAAUUAGUAAAGUAGAAGGGAUUGAGGUUU [SSFMNB.aA] | 353 | 275 | 324 | 368 | 241 |
| AGUACGCCCAGUGAUACCAGCCCGCCUGGGCAGUGAUGUUGCUCGGGAAAUAAAAUAGAGGGCCCUUGGCAGCACACGGUAGUCC [Cees] | 186 | 144 | 189 | 107 | 174 |
| AGUAGUUGGGCGGCCGCCACUAGAACAGCUUUGCCAAAGGCAGAGCUCUAGAGUGAUGUUCUGGCUAGGACCGGGUCCAACUACA [#01 K4 Tryptophan B Same State] | 930 | 594 | 932 | 980 | 417 |
| AGUCCACUCUAAAGAGUGGACCUAAGGGAUACCAGUGAUGUUGGUCACCCUUGGCAGCCCAGGGCCCGGCGAAUAGCCGGGCCCA [#10 K4 Theophylline A Exclusion] | 125 | 99.8 | 115 | 121 | 125 |
| AGUCCACUCUAAAGAGUGGACCUAAGGGAUACCAGUGAUGUUGGUCACCCUUGGCAGCCCUCUGUCAUCGAUAAAGAUGGCAGCA | 132 | 114 | 136 | 149 | 145 |
| AGUCGCAGUGAUGUUGCGAUUCCGUUGAGGGAGGAUAUUGGUAAUACAAGAAGGCCCGGCUGCGGGUGAUGUUCGCAAUAGGGCC [Exclusion FMN A GF19] | 138 | 108 | 117 | 112 | 105 |
| AGUGAAGUUAGUGAUGUGUGAGUUUGGGAAGGAGCGCCGAGGAAGGCAGGUAGGUCGCCCAGUGAUGUUGGUGUAAAGAUGAGAG [whbob_Ex_Arginine_A_2t122] | 308 | 135 | 158 | 254 | 231 |
| AGUGAUAUAUGAGGAUAUGGGAUAGUUAAUGAGUUAGUUUUAGUGUUGUUUGGUUAGUGAUGUUAUUUAGAAGGCGUGAGUGAUG [tptymullin] | 107 | 74.3 | 76.7 | 106 | 74.4 |
| AGUGAUAUAUGAGGAUAUGGGUUUGUUAAUGAGUUAGUUUUAGUGUUGUUUGGUUAGUGAUGUUAUUUAGAAGGCGUGAGUGAUG [vkkjkjmullin] | 103 | 79.8 | 79.9 | 140 | 72.8 |
| AGUGAUGUAUGGCGGUUGGUCACUUAGGAUCAGGAUAUAUAAACAAAUAGAAGGGAUGGCGGAGUGAUGUUCCGCCGGCCGCCAU [FMN A Exl V2] | 173 | 130 | 177 | 191 | 170 |
| AGUGAUGUGGGAAGGAGCGCUACAAGACUUCAGUGAUGUUGAAGUGAUGUUUUAGUGUUGUAGCAGGUAGGUCGCCUAGAUGUUA [KL-XARG-B10] | 71.2 | 31.9 | 42.5 | 45.7 | 43.7 |
| AGUGAUGUGGGAAGGAGCGCUACAUGACUUCAGUGAUGUUGAAGUGAUGAUUUAGUGAUGUAGCAGGUAGGUCGCCUAGAUGUUA [KL-XARG-B8] | 98.3 | 41.2 | 77.2 | 77.5 | 62.5 |
